Patent US20160053277A1, “Compositions Having Dicamba Decarboxylase Activity and Methods of Use” (PIONEER HI-BRED INTERNATIONAL, INC., priority 2013, published 2016)

Assays:
[1] = Saturation mutagenesis of SEQ ID NO:109: dicamba decarboxylation activity of point mutants (carbon dioxide released); conditions: decarboxylation activity (carbon dioxide released) of point mutant compared with unmutated backbone protein; backbone SEQ ID NO: 109
[2] = Shuffled variant libraries: 14CO2 capturing assay in 384-well format; conditions: decarboxylation activity (carbon dioxide released) compared with unmutated backbone protein SEQ ID NO 133 (DDEC0201)

Molecule	Fold Activity [1]	Fold Activity [2]
207 (protein, Dicamba decarboxylase variant) MAQGKVALEEHFAIPETLQDSAGFVPGDYWKELQHRLLDIQDTRLKLMDAHGIETMILSLAAPAVQAIPDRRKAIEIARRANDFLAEECAKRPDRFLAFAALPLQDPDAATEELQRCVNDLGFVGALVNGFSVEGDGQTPLYYDLPQYRPFWGEVEKLDVPFYLHPRNPLPQDSRIYDGHPWLLGPTWAFAQETAVHALRLMASGLFDEHPRLNIILGHMGEGLPYMMYRIDHRIAWVHEPPRYPAKRRFMDYFNENFHITTSGNFRTQTLIDAILEIGADRILFSTDWPFENIDHAAAWFNATSIAEADRVKIGRTNARRLFKLDLD	1.3	1.4
251 (protein, Dicamba decarboxylase variant) MAQGKVALEEHFAIPETLQDSAGFVPGDYWKELQHRLLDIQDTRLKLMDAHGIDTMILSLAAPGVQAIPDRRKAIEIARRANDILAEECAKRPDRFLAFAALPLQDPDAATEELQRCVNDLGFVGALVNGFSQEGDGQTPLYYDLPQYRPFWGEVEKLDVPFYLHPRNPLPQDSRIYDGHPWLLGPTWAFAQETAVHALRLMASGLFDEHPRLNIILGHMGEGLPYMMYRIDHRIAWVQEPPRYPAKRRFMDYFNENFHITTSGNFRTQTLIDAILEIGADRILFSTDWPFENIDHAADWFNATSIAEADRVKIGRTNARRLFKLDLD	1	1.2
248 (protein, Dicamba decarboxylase variant) MAQGKVALEEHFAIPETLQDSAGFVPSEYLKELQHRLLDIQDTRLKLMDAHGIETMILSLAAPAVQAIPDRRKAIEIARRANDFLAEECAKRPDRFLAFAALPLQDPDAATEELQRTVNTLGFVGALVNGFSVEGDGQTPLYYDLPQYRPFWGEVEKLDVPFYLHPRNPLPQDSRIYDGHPWLLGPTWAFAQETAVHALRLMASGLFDEHPRLNIILGHMGEGLPYMMYRIDHRIAWVHEPPRYPAKRRFMDYFNENFHITTSGNFRTQTLIDAILEIGADRILFSTDWPFENIDHAADWFNATSIAEADRVKIGRTNARRLFKLDLD	2.3	1.5
209 (protein, Dicamba decarboxylase variant) MAQGKVALEEHFAIPETLNDSAGFVPGDYWKELQHRLLDIQDTRLKLMDAHGIETMILSLAAPAVQAIPDRRKAIEIARRANDFLAEECAKRPDRFLAFAALPLQDPDAATEELQRTVNDLGFVGALVNGFSVEGDGQTPLYYDLPQYRPFWGEVEKLDVPFYLHPRNPLPQDSRIYDGHPWLLGPTWAFAQETAVHALRLMASGLFDEHPRLNIILGHMGEGLPYMMYRIDHRIAWVHEPPRYPAKRRFMDYFNENFHITTSGNFRTQTLIDAILEIGADRILFSTDWPFENIDHAADWFNATSIAEADRVKIGRTNARRLFKLDGD	1.6	1.3
210 (protein, Dicamba decarboxylase variant) MAQGKVALEEHFAIPETLQDSAGFVPGDYWKELQHRLLDIQDTRLKLMDAHGIGTMILSLAAPAVQAIPDRRKAIEIARRANDFLAEECAKRPDRFLAFAALPLQDPDAATEELQRCVNDLGFVGALVNGFSVEGDGQTPLYYDLPQYRPFWGEVEKLDVPFYLHPRNPLPQDSRIYDGHPWLLGPTWAFAQETAVHALRLMASGLFDEHPRLNIILGHMGEGLPYMMYRIDHRIAWVKLPPRYPAKRRFMDYFNENFHITTSGNFRTQTLIDAILEIGADRILFSTDWPFENIDHAADWFNATSIAEADRVKIGRTNARRLFKLDGD	1.8	1.3
249 (protein, Dicamba decarboxylase variant) MAQGKVALEEHFAIPETLQDSAGFVPGDYWKELQHRLLDIQDTRLKLMDAHRIETMILSLAAPAVQAIPDRRKAIEIARRANDILAEECAKRPDRFLAFAALPMQDVDAATEELQRCVNDLGFVGALVNGFSQEGDGQTPLYYDLPQYRPFWGEVEKLDVPFYLHPRNPLPQDSRIYDGHPWLLGPTWAFAQETAVHALRLMASGLFDEHPRLNIILGHMGEGLPYMMYRIDHRIAWVHQPPRYPAKRRFMDYFNENFHITTSGNFRTQTLIDAILEIGADRILFSTDWPFENIDHAADWFNATSIAEADRVKIGRTNARRLFKLDGD	2.6	0.9
253 (protein, Dicamba decarboxylase variant) MAQGKVALEEHFAIPETLQDSAGFVPGDYWKELQHRLLDIQDTRLKLMDAHGIETMILSLAAPAVQAIPDRVKAIEIARRANDFLAEECAKRPDRFLAFAALPLQDPDAATEELQRCVNDLGFVGALVNGFSQEGDGQTPLYYDLPQYRPFWGEVEKLDVPFYLHPRNPLPQDSRIYDGHPWLLGPTWAFAQETAVHALRLMASGLFDEHPRLNIILGHMGEGLPYMMYRIDHRIAWVKLPPRYPAKRRFMDYFNENFHITTSGNFRTQTLIDAILEIGADRILFSTDWPFENIDHAADWFNATSIAEADRVKIGRTNARRLFKLDGD	0.9	1.7
208 (protein, Dicamba decarboxylase variant) MAQGKVALEEHFAIPETLQDSAGFVPSDYLKELQHRLLDIQDTRLKLMDAHGIETMILSLAAPAVQAIPDRRKAIEIARRANDFLAEECAKRPDRFLAFAALPLQDPDAATEELQRCVNDLGFVGALVNGFSVEGDGQTPLYYDLPQYRPFWGEVEKLDVPFYLHPRNPLPQDSRIYDGHPWLLGPTWAFAQETAVHALRLMASGLFDEHPRLNIILGHLGEGLPYMMYRIDHRIAWVHEPPRYPAKRRFMDYFNENFHITTSGNFRTQTLIDAILEIGADRILFSTDWPFENIDHAADWFNATSIAEADRLKIGRTNARRLFKLDLD	1.5	2.2
250 (protein, Dicamba decarboxylase variant) MAQGKVALEEHFAIPETLQDSAGFVPGDYWKELQHRLLDIQDTRLKLMDAHGIETMILSLAAPAVQAIPDRRKAIEIARRANDMLAEECAKRPDRFLAFAALPLQDPDAATEELQRCVNDLGFVGALVNGFSQEGDGQTPLYYDLPQYRPFWGEVEKLDVPFYLHPRNPLPQDSRIYDGHPWLLGPTWAFAQETAVHALRLMASGLFDEHPRLNIILGHMGEGLPYMMYRIDHRIAWVHEPPRYPAKRRFMDYFNENFHITTSGNFRTQTLIDAILEIGADRILFSTDWPFENIDHAADWFNATSIAEADRVKIGRTNARRLFKLDGD	0.7	0.8
252 (protein, Dicamba decarboxylase variant) MAQGKVALEEHFAIPETLQDSAGFVPGDYWKELQHRLLDIQDTRLRLMDAHGIGTMILSLAAPGVQAIPDRRKAIEIARRANDFLAEECAKRPDRFLAFAALPLQDVDAASEELQRCVNDLGFVGALVNGFSQEGDGQTPLYYDLPQYRPFWGEVEKLDVPFYLHPRNPLPQDSRIYDGHPWLLGPTWAFAQETAVHALRLMASGLFDEHPRLNIILGHMGEGLPYMMYRIDHRIAWVKLPPRYPAKRRFMDYFNENFHITTSGNFRTQTLIDAILEIGADRILFSTDWPFENIDHAADWFNATSIAEADRVKIGRTNARRLFKLDGA	0.7	0.9
